Data reported in publication doi:10.1101/2020.10.23.350348.
pKd: −log10 of the molar value.

Target: transferrin receptor (UniProt P02786)
Test: SPR

Chain of transferrin receptor (P02786 whole entry): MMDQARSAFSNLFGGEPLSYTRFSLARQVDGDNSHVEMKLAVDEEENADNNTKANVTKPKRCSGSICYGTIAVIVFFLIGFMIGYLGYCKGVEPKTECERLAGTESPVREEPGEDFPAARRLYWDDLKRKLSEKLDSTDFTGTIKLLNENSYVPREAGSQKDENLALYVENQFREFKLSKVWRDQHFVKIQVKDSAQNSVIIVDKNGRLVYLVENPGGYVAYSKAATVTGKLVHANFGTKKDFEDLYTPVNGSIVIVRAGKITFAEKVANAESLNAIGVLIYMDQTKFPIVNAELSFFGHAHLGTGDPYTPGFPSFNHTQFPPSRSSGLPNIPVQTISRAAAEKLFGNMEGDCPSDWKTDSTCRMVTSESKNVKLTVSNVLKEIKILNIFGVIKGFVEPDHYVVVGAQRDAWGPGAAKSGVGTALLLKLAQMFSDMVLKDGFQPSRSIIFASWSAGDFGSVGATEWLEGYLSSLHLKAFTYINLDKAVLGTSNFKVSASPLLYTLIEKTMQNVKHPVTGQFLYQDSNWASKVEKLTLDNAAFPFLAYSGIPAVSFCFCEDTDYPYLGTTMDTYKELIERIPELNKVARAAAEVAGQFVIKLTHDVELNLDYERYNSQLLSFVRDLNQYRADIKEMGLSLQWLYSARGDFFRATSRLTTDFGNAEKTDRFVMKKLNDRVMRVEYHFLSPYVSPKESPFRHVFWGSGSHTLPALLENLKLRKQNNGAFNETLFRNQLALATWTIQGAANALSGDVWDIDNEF

Substance: SARS-CoV-2 spike protein (from UniProt P0DTC2 14-1273) (natural protein)
- pKd: 8.53
